Laboratory results as given in PMC3643581.

Target: rPTB4 (pQE-PTB4) (UniProt P26599 1-557)
Experiment: UV cross-linking

Sequence of rPTB4 (pQE-PTB4) (P26599 whole entry): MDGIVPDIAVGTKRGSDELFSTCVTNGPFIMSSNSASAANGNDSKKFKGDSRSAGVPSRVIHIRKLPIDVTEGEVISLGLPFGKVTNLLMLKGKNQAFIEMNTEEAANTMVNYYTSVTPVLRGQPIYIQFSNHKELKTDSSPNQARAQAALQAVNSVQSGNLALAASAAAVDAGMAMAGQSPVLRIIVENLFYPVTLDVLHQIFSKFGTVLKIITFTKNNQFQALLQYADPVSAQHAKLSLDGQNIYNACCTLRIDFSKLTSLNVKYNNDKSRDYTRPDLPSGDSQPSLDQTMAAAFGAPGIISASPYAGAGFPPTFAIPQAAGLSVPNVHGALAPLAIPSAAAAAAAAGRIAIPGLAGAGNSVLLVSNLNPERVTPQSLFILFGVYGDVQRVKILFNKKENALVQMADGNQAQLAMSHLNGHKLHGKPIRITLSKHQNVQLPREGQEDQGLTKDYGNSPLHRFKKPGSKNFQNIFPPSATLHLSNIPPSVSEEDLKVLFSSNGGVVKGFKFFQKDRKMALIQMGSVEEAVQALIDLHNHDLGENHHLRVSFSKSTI

B1: MBNL SELEX RNA D12 (ssRNA)
RNA: GGGAGACAAGCUCCUCCUGCGCUCUUUGCUUGCCCUGCUGUGUCGAAUU
binding result: no binding
